Results: patent publication US5130298A, “Stabilized compositions containing epidermal growth factor” (Ethicon, Inc., priority 1989, dated 1992)

Tests used:
[1] = EGF stability with zinc ion at pH 5.5 to 6.5, aged 28 days at 46° C., reverse phase HPLC of Peaks C, D, X, Y; assay type: physicochemical
Procedure: Recombinantly produced human EGF (Chiron Corporation, Emeryville, Calif.) was used in the following experiments. EGF stability with zinc ion was tested at pH 5.5 to 6.5. Lyophilized EGF was reconstituted in 50 mM sodium acetate at PH 5.5. A solution of zinc chloride was then added to this EGF solution. Alternatively, a solution of zinc acetate or crystals of a zinc salt could have been added.
The samples were permitted to age over a 28 day period and then HPLC analysis was used to study the structural changes involving the formation of new species (e.g., Peaks C, X and Y) of EGF under various storage conditions and in the presence of new formulations. Reverse phase HPLC can be used for quantitative and qualitative analysis of EGF.
(§1) The zinc-EGF complex must be dissociated before HPLC analysis because the complex cannot be run on the HPLC column as is. Therefore, prior to HPLC, the pH of the samples to be analyzed was adjusted to 3.0. Alternatively, EDTA (a chelating agent) may be used to reverse crystallization. Reverse phase HPLC was conducted using a Vydac C-4 column (4.6 mm×25 cm, 5μm). The flow rate was 0.8 ml/min at 26° C. using a linear gradient of 26% to 32% acetonitrile (0.1% TFA) over 26 minutes.

[2] = Stability of precipitated EGF at pH 4.6, 7 days at 46° C., with or without zinc ion, reverse phase HPLC; assay type: physicochemical; settings: pH 4.6, precipitated, sodium acetate buffer
Procedure: as §1
This experiment was designed to answer the stability of the zinc-EGF complex results from the exclusion of water by the large and insoluble complex or alternatively from the direct interaction of zinc ion with specific amino acids in the protein. A zinc-EGF solution and control were prepared as in Example 1 and the samples were adjusted to a PH of 4.6. At this pH EGF naturally precipitates out of solution since it is at its isoelectric point. Two sets of the precipitated EGF at pH 4.6 in sodium acetate buffer were incubated for 7 days at 46° C.

Substance	% Peak C ([1]; pH 5.5, 28 days at 46° C.) [%]	% Peak D (native EGF) ([1]; pH 5.5, 28 days at 46° C.) [%]	% Peak X ([1]; pH 5.5, 28 days at 46° C.) [%]	% Peak C ([1]; pH 6.0, 28 days at 46° C.) [%]	% Peak D (native EGF) ([1]; pH 6.0, 28 days at 46° C.) [%]	% Peak X ([1]; pH 6.0, 28 days at 46° C.) [%]	% Peak C ([1]; pH 6.5, 28 days at 46° C.) [%]	% Peak X ([1]; pH 6.5, 28 days at 46° C.) [%]	% Peak C [2] [%]	% Peak X [2] [%]	% Peak Y [2] [%]	% Peak Y ([1]; pH 5.5, 28 days at 46° C.) [%]	% Peak Y ([1]; pH 6.0, 28 days at 46° C.) [%]	% Peak D (native EGF) ([1]; pH 6.5, 28 days at 46° C.) [%]	% Peak Y ([1]; pH 6.5, 28 days at 46° C.) [%]	% Peak D (native EGF) [2] [%]
With Zn++: complex ion wherein zinc is coordinately bound to recombinant human EGF; precipitates at pH 4.0-7.0	3	82	0	3	75	4	1	0	2	7	0	–	–	–	–	–
Without Zn++: Recombinantly produced human epidermal growth factor (Chiron Corporation), 53 amino acid polypeptide, without zinc; control	3	30	–	6	51	–	6	–	0	26	27	25	21	52	21	47
